Tested on: Rev full-length wild-type (HIV-1 (HXB3?))
Assay: EMSA
Settings: 10 mM HEPES pH 7.5, 0.1 M KCl (0.3 M KCl and no tRNA for SYBR Green II assay), 1 mM MgCl2, 0.5 mM EDTA, 2 mM DTT, 10% glycerol, 50 ug/ml yeast tRNA, 0.2 mg/ml …

## RRE full-length 234 nt
  Kd: 145 pM
